1 molecule from PMC9279676, “ERK2 MAP kinase regulates SUFU binding by multisite phosphorylation of GLI1” (Life Science Alliance, 2022) can be followed below.

Assay [1] deals with T1, full-length GLI1 S102E S116E S130E, 35S-radiolabeled (human, UniProt P08151-1 1-1106, S102E | S116E | S130E, [35S]-methionine label).
T1 construct: human GLI1, full length (1,106 residues); also called FL-GLI1^EEE; GLI1^EEE; source: in vitro transcription/translation, partially purified by ammonium sulfate precipitation
T1 sequence (looked up): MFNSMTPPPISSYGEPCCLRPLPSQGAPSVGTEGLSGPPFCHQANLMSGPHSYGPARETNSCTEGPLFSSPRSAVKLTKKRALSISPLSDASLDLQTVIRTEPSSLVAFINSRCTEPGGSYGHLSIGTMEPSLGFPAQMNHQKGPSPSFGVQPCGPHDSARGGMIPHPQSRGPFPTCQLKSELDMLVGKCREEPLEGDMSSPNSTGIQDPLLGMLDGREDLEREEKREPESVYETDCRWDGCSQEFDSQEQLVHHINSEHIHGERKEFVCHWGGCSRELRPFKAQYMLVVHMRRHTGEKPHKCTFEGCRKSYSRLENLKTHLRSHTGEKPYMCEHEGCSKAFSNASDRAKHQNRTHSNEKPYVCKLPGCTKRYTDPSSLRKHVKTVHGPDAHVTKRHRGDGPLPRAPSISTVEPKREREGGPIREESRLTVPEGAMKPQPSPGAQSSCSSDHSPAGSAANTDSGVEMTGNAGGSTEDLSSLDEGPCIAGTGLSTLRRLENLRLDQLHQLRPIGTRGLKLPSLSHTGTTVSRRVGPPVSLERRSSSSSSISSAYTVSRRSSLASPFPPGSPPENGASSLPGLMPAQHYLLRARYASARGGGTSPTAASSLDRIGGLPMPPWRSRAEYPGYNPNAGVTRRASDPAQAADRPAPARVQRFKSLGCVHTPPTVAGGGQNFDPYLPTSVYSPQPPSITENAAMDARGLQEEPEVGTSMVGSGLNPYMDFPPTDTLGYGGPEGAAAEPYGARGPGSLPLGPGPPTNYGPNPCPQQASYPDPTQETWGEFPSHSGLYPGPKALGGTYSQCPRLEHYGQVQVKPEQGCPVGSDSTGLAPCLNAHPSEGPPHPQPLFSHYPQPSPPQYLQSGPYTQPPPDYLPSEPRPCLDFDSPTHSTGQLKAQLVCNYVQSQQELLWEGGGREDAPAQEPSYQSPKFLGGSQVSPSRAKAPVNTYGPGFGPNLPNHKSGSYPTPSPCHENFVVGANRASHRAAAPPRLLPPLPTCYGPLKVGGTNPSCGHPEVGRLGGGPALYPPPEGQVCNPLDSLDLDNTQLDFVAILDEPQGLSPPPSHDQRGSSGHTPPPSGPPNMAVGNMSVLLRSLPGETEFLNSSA
As to the kind of experiment: pull-down; purified GST-SUFU, 1.25-80 nM, captured on glutathione-Sepharose beads; ∼1 pmol 35S-GLI1 (1-232 or full length) in 200 μl; 15 min at 30°C, then 1 h at room temperature; Binding Buffer + 1 mg/ml BSA; bound GLI1 quantified by SDS-PAGE and Phosphorimager; Kd from binding isotherms. The conditions noted are these: one partner purified.

The target of assay [2] is T2, full-length GLI1^G122A,H123A, 35S-radiolabeled (human, UniProt P08151-1 1-1106, G122A | H123A, [35S]-methionine label).
T2 construct: human GLI1, full length (1,106 residues); also called G122A, H123A double substitution; source: in vitro transcription/translation, partially purified by ammonium sulfate precipitation
T2 sequence (looked up): T1 sequence (looked up) with E102S, E116S, G122A, H123A, E130S
The assay is described as above. The conditions noted are these: one partner purified.

Where a chain is given by its changes, count along the chain named.

B1: GST-SUFU (fusion of GST to full-length human SUFU) (natural protein, UniProt Q9UMX1-1 1-484, looked up)
chain: MAELRPSGAPGPTAPPAPGPTAPPAFASLFPPGLHAIYGECRRLYPDQPNPLQVTAIVKYWLGGPDPLDYVSMYRNVGSPSANIPEHWHYISFGLSDLYGDNRVHEFTGTDGPSGFGFELTFRLKRETGESAPPTWPAELMQGLARYVFQSENTFCSGDHVSWHSPLDNSESRIQHMLLTEDPQMQPVQTPFGVVTFLQIVGVCTEELHSAQQWNGQGILELLRTVPIAGGPWLITDMRRGETIFEIDPHLQERVDKGIETDGSNLSGVSAKCAWDDLSRPPEDDEDSRSICIGTQPRRLSGKDTEQIRETLRRGLEINSKPVLPPINPQRQNGLAHDRAPSRKDSLESDSSTAIIPHELIRTRQLESVHLKFNQESGALIPLCLRGRLLHGRHFTYKSITGDMAITFVSTGVEGAFATEEHPYAAHGPWLQILLTEEFVEKMLEDLEDLTSPEEFKLPKEYSWPEKKLKVSILPDVVFDSPLH
notes: human SUFU, full length (residues 1-484), BamHI-SUFU-SalI cassette in pGEX-LB; pGEX-LB carries a Gly-Gly-Gly-Gly-Gly-Ser-Gly stretch between GST and the fused protein; also called full-length GST-SUFU; source: Escherichia coli, purified (glutathione-Sepharose); not shown: GST, N-terminal, kept
In general, Kd refers to a measure of binding affinity in units of concentration. Regarding B1, the Kd turned out to be 42 ± 8 nM in assay [1] and 120 ± 35 nM in assay [2].
